Laboratory results as given in patent publication US20160244497A1 (Amgen, published 2016).
Residue numbers refer to the chain shown, from its start. Names may count otherwise. “And” between values parts separate entries of the source, which are not always exact repeats. Equal entries are not always repeated.

B1: FGF21 mutant H125C, P171G, PEGylated at the N-terminus (10k) and Cys 125 (20k) (ligand)
chain: MHPIPDSSPLLQFGGQVRQRYLYTDDAQQTEAHLEIREDGTVGGAADQSPESLLQLKALKPGVIQILGVKTSRFLCQRPDGALYGSLHFDPEACSFRELLLEDGYNVYQSEAHGLPLHLPGNKSPCRDPAPRGPARFLPLPGLPPAPPEPPGILAPQPPDVGSSDPLSMVGGSQGRSPSYAS
modifications: 10 kDa PEG on the N-terminus; 20 kDa PEG on Cys 125
B2: FGF21 mutant H125C, P171G, PEGylated at the N-terminus and Cys 125 (2 x 20k) (ligand)
chain: B1 chain
modifications: 20 kDa PEG on the N-terminus; 20 kDa PEG on Cys 125
B3: FGF21 mutant H125C, P171G, PEGylated at the N-terminus (5k) and Cys 125 (20k) (ligand)
chain: B1 chain
modifications: 5 kDa PEG on the N-terminus; 20 kDa PEG on Cys 125
B4: FGF21 mutant R77C, P171G, PEGylated at the N-terminus and Cys 77 (2 x 20k) (ligand)
chain: B1 chain with R78C, C126H
modifications: 20 kDa PEG on the N-terminus; 20 kDa PEG on Cys 77
B5: wild-type FGF21 (mature, un-PEGylated) (ligand)
chain: B1 chain with C126H, G172P
B6: dually PEGylated FGF21 mutant K69C, R175C (ligand)
chain: B1 chain with K70C, C126H, G172P, R176C
modifications: 20 kDa methoxy-PEG-maleimide on Cys 69 and on Cys 175
B7: dually PEGylated FGF21 mutant H125C, R175C (ligand)
chain: B1 chain with G172P, R176C
modifications: 20 kDa methoxy-PEG-maleimide on Cys 125 and on Cys 175
B8: dually PEGylated FGF21 mutant E37C, G170C (ligand)
chain: B1 chain with E38C, C126H, G171C, G172P
modifications: 20 kDa methoxy-PEG-maleimide on Cys 37 and on Cys 170
B9: N-terminally PEGylated wild-type FGF21 (20 kDa PEG) (ligand)
chain: B1 chain with C126H, G172P
modifications: one 20 kDa PEG on the N-terminus (alpha-amino group)
B10: dually PEGylated FGF21 mutant K69C, R77C (ligand)
chain: B1 chain with K70C, R78C, C126H, G172P
modifications: 20 kDa methoxy-PEG-maleimide on Cys 69 and on Cys 77
B11: Native FGF21 (random), 2 x 20k PEG (ligand)
chain: B1 chain with C126H, G172P
modifications: two 20k PEG at random sites (sites not given)
B12: FGF21(K56R/K69R/K122R), 2 x 20k PEG (ligand)
chain: B1 chain with K57R, K70R, K123R, C126H, G172P
modifications: two 20k PEG (amine-specific): N-terminus and the one remaining lysine (Lys 59)
B13: FGF21(K all R, R126K), 2 x 20k PEG (ligand)
chain: B1 chain with K57R, K60R, K70R, K123R, C126H, R127K, G172P
modifications: two 20k PEG (amine-specific): N-terminus and Lys 126
B14: FGF21(K56R/K59R/K122R), 2 x 20k PEG (ligand)
chain: B1 chain with K57R, K60R, K123R, C126H, G172P
modifications: two 20k PEG (amine-specific): N-terminus and the one remaining lysine (Lys 69)
B15: FGF21(all K to all R, R175K), 2 x 20k PEG (ligand)
chain: B1 chain with K57R, K60R, K70R, K123R, C126H, G172P, R176K
modifications: two 20k PEG (amine-specific): N-terminus and Lys 175
B16: FGF21(all K to all R, R72K), 2 x 20k PEG (ligand)
chain: B1 chain with K57R, K60R, K70R, R73K, K123R, C126H, G172P
modifications: two 20k PEG (amine-specific): N-terminus and Lys 72
B17: FGF21(K56/59/69R), 2 x 20k PEG (ligand)
chain: B1 chain with K57R, K60R, K70R, C126H, G172P
modifications: two 20k PEG (amine-specific): N-terminus and the one remaining lysine (Lys 122)
B18: FGF21(K59R/K69R/K122R), 2 x 20k PEG (ligand)
chain: B1 chain with K60R, K70R, K123R, C126H, G172P
modifications: two 20k PEG (amine-specific): N-terminus and the one remaining lysine (Lys 56)
B19: FGF21(all K to all R, R77K), 2 x 20k PEG (ligand)
chain: B1 chain with K57R, K60R, K70R, R78K, K123R, C126H, G172P
modifications: two 20k PEG (amine-specific): N-terminus and Lys 77
B20: FGF21(all K to all R, R36K), 2 x 20k PEG (ligand)
chain: B1 chain with R37K, K57R, K60R, K70R, K123R, C126H, G172P
modifications: two 20k PEG (amine-specific): N-terminus and Lys 36
B21: dually PEGylated FGF21 mutant E91C, R175C, P171G (ligand)
chain: B1 chain with E92C, C126H, R176C
modifications: 20 kDa methoxy-PEG-maleimide on Cys 91 and on Cys 175
B22: dually PEGylated FGF21 mutant E37C, E91C, P171G (ligand)
chain: B1 chain with E38C, E92C, C126H
modifications: 20 kDa methoxy-PEG-maleimide on Cys 37 and on Cys 91
B23: dually PEGylated FGF21 mutant E91C, G120C, P171G (ligand)
chain: B1 chain with E92C, G121C, C126H
modifications: 20 kDa methoxy-PEG-maleimide on Cys 91 and on Cys 120
B24: dually PEGylated FGF21 mutant E37C, G120C, P171G (ligand)
chain: B1 chain with E38C, G121C, C126H
modifications: 20 kDa methoxy-PEG-maleimide on Cys 37 and on Cys 120
B25: dually PEGylated FGF21 mutant E37C, H125C, P171G (ligand)
chain: B1 chain with E38C
modifications: 20 kDa methoxy-PEG-maleimide on Cys 37 and on Cys 125
B26: dually PEGylated FGF21 mutant R77C, G120C, P171G (ligand)
chain: B1 chain with R78C, G121C, C126H
modifications: 20 kDa methoxy-PEG-maleimide on Cys 77 and on Cys 120
B27: dually PEGylated FGF21 mutant E91C, H125C, P171G (ligand)
chain: B1 chain with E92C
modifications: 20 kDa methoxy-PEG-maleimide on Cys 91 and on Cys 125
B28: dually PEGylated FGF21 mutant E37C, R77C, P171G (ligand)
chain: B1 chain with E38C, R78C, C126H
modifications: 20 kDa methoxy-PEG-maleimide on Cys 37 and on Cys 77
B29: dually PEGylated FGF21 mutant E37C, R175C, P171G (ligand)
chain: B1 chain with E38C, C126H, R176C
modifications: 20 kDa methoxy-PEG-maleimide on Cys 37 and on Cys 175
B30: Tethered Molecule of two FGF21 H125C, P171G polypeptides (20 kDa PEG linker) (ligand)
chain: B1 chain
modifications: Cys 125 of the two chains joined by one 20 kDa PEG bis-maleimide
B31: Tethered Molecule of two FGF21 G170C polypeptides (20 kDa PEG linker) (ligand)
chain: B1 chain with C126H, G171C, G172P
modifications: Cys 170 of the two chains joined by one 20 kDa PEG bis-maleimide
B32: Tethered Molecule of two FGF21 E91C, P171G polypeptides (20 kDa PEG linker) (ligand)
chain: B1 chain with E92C, C126H
modifications: Cys 91 of the two chains joined by one 20 kDa PEG bis-maleimide
B33: Tethered Molecule of two FGF21 R175C, P171G polypeptides (20 kDa PEG linker) (ligand)
chain: B1 chain with C126H, R176C
modifications: Cys 175 of the two chains joined by one 20 kDa PEG bis-maleimide
B34: Tethered Molecule of two FGF21 P171C polypeptides (20 kDa PEG linker) (ligand)
chain: B1 chain with C126H, G172C
modifications: Cys 171 of the two chains joined by one 20 kDa PEG bis-maleimide
B35: Tethered Molecule of two FGF21 E37C, P171G polypeptides (20 kDa PEG linker) (ligand)
chain: B1 chain with E38C, C126H
modifications: Cys 37 of the two chains joined by one 20 kDa PEG bis-maleimide
B36: Tethered Molecule of two FGF21 G120C, P171G polypeptides (20 kDa PEG linker) (ligand)
chain: B1 chain with G121C, C126H
modifications: Cys 120 of the two chains joined by one 20 kDa PEG bis-maleimide
B37: Tethered Molecule of two FGF21 R77C, P171G polypeptides (20 kDa PEG linker) (ligand)
chain: B1 chain with R78C, C126H
modifications: Cys 77 of the two chains joined by one 20 kDa PEG bis-maleimide
B38: PEGylated FGF21 mutant H125C (ligand)
chain: B1 chain with G172P
modifications: 20 kDa methoxy-PEG-maleimide on Cys 125
B39: PEGylated FGF21 mutant D46C (ligand)
chain: B1 chain with D47C, C126H, G172P
modifications: 20 kDa methoxy-PEG-maleimide on Cys 46
B40: PEGylated FGF21 mutant D38C (ligand)
chain: B1 chain with D39C, C126H, G172P
modifications: 20 kDa methoxy-PEG-maleimide on Cys 38
B41: PEGylated FGF21 mutant Y179C (ligand)
chain: B1 chain with C126H, G172P, Y180C
modifications: 20 kDa methoxy-PEG-maleimide on Cys 179
B42: PEGylated FGF21 mutant G113C (ligand)
chain: B1 chain with G114C, C126H, G172P
modifications: 20 kDa methoxy-PEG-maleimide on Cys 113
B43: PEGylated FGF21 mutant R126C (ligand)
chain: B1 chain with C126H, R127C, G172P
modifications: 20 kDa methoxy-PEG-maleimide on Cys 126
B44: PEGylated FGF21 mutant G120C (ligand)
chain: B1 chain with G121C, C126H, G172P
modifications: 20 kDa methoxy-PEG-maleimide on Cys 120
B45: PEGylated FGF21 mutant E91C (ligand)
chain: B1 chain with E92C, C126H, G172P
modifications: 20 kDa methoxy-PEG-maleimide on Cys 91
B46: PEGylated FGF21 mutant R77C (ligand)
chain: B1 chain with R78C, C126H, G172P
modifications: 20 kDa methoxy-PEG-maleimide on Cys 77
B47: PEGylated FGF21 mutant R175C (ligand)
chain: B1 chain with C126H, G172P, R176C
modifications: 20 kDa methoxy-PEG-maleimide on Cys 175
B48: PEGylated FGF21 mutant E37C (ligand)
chain: B1 chain with E38C, C126H, G172P
modifications: 20 kDa methoxy-PEG-maleimide on Cys 37
B49: PEGylated FGF21 mutant K69C (ligand)
chain: B1 chain with K70C, C126H, G172P
modifications: 20 kDa methoxy-PEG-maleimide on Cys 69
B50: PEGylated FGF21 mutant N121C (ligand)
chain: B1 chain with N122C, C126H, G172P
modifications: 20 kDa methoxy-PEG-maleimide on Cys 121
B51: PEGylated FGF21 mutant D79C (ligand)
chain: B1 chain with D80C, C126H, G172P
modifications: 20 kDa methoxy-PEG-maleimide on Cys 79

What follows are binders tested against beta-klotho (assay: cell-based or functional assay).

Row | Binder | EC50, ELK-luciferase assay [nM]
1 | B1 | 65
2 | B2 | 152
3 | B3 | 30
4 | B4 | 64

Target: beta-klotho
Assay: cell-based or functional assay
Remark: another data set of the same source

Row | Binder | EC50, ELK-luciferase assay [nM]
5 | B5 | 3
6 | B6 | 318
7 | B7 | 200
8 | B8 | 163
9 | B9 | 37
10 | B10 | 180

Target: beta-klotho
Assay: cell-based or functional assay
Remark: another data set of the same source

Row | Binder | In Vitro Activity EC50, ELK-luciferase assay [nM]
11 | B5 | 3
12 | B11 | 200
13 | B12 | 215
14 | B13 | 38
15 | B14 | 531
16 | B15 | > 1000
17 | B9 | 43.3
18 | B16 | > 1000
19 | B17 | 500
20 | B18 | 499
21 | B19 | 175
22 | B20 | 73

Target: beta-klotho
Assay: cell-based or functional assay
Remark: another data set of the same source

Row | Binder | EC50, ELK-luciferase assay [nM]
23 | B21 | 155
24 | B22 | 30
25 | B23 | 34
26 | B24 | 35
27 | B25 | 37
28 | B26 | 35
29 | B27 | 37
30 | B28 | 27
31 | B29 | 162

Target: beta-klotho
Assay: cell-based or functional assay
Remark: another data set of the same source

Row | Binder | EC50, ELK-luciferase assay [nM]
32 | B30 | 0.21
33 | B31 | 0.47
34 | B32 | 0.2
35 | B33 | 0.36
36 | B34 | 0.21
37 | B35 | 0.36
38 | B36 | 0.51
39 | B37 | 0.25

Target: beta-klotho
Assay: cell-based or functional assay
Remark: another data set of the same source

Row | Binder | EC50, ELK-luciferase assay [nM]
40 | B5 | 0.63

Target: beta-klotho
Assay: cell-based or functional assay
Remark: another data set of the same source

Row | Binder | EC50, ELK-luciferase assay
41 | B38 | 4.5 nM
42 | B39 | 27.8 nM
43 | B40 | 13.1 nM
44 | B41 | 287 nM
45 | B42 | 12 nM
46 | B43 | 10 nM
47 | B44 | 6 nM
48 | B45 | 8.3 nM
49 | B46 | 4.9 nM
50 | B9 | 36.7 nM and 43.3 nM and 21.5 nM and 40 nM
51 | B47 | 7.9 nM
52 | B48 | 6.9 nM
53 | B49 | 5.3 nM
54 | B50 | 9.2 nM
55 | B51 | 20.4 nM
